Source: US5733879A, “Peptides and proteins, process for their preparation and their use as cholesterol acceptors” (N.V. Innogenetics, S.A., priority 1992, dated 1998)
Where “and” joins values, the source holds several entries; their conditions need not be identical. Equal entries are not always repeated. Entries after “also recorded” stand apart in the source; their conditions may differ. Where no end group is shown, it is not given here.

Experiments:
[1] = Percentage of alpha-helix structure by circular dichroism; format: physicochemical; settings: for percentage of alpha-helix structure, peptide, CD: free peptide; for percentage of alpha-helix structure, DMPC/peptide, CD: phospholipid-peptide (DMPC) complex
Experimental: Table 1: corresponds to the percentage of alpha-helix structure in the free peptide and in the phospholipid-peptide (DMPC) complexes as determined by infrared spectroscopy (IR) and circular dichroism (CD).
Circular dichroism spectra of the peptides and their complexes with lipids were measured on a Jasco 600 spectropolarimeter at 23° C. (Brasscur et at., 1991). Measurements were carried out at a protein concentration of 0.1 mg/ml in a 0.01M sodium phosphate buffer pH 7.4. Nine spectra were collected and averaged for each sample. The secondary structure was estimated according to the generalized inverse method of Compton and Johnson (Compton et at., 1986).

[2] = target: T1, semi-purified LCAT enzyme (Homo sapiens, UniProt P04180); assay: LCAT activation properties of the phospholipid-peptide complexes (HPLC of cholesteryl esters); format: biochemical; settings: for Vmax compared with other complexes / apo AI-phospholipid complexes: Lineweaver-Burk plots; for Vmax (LCAT activation): PLPC/cholesterol/peptide discoidal complex as substrate, apparent kinetic constant, 37° C.; for kinetics of cholesterol esterification by LCAT (time course): discoidal complexes with PLPC and cholesterol, 0-24 h; for Vmax/Km A % of apo A1 (LCAT activation): relative to apo AI-phospholipid complex = 100
T1 construct: corresponds to the concentration relative to that in plasma by a factor of 5100, with the major contaminant being albumin; from tissue
T1 sequence (P04180 25-440): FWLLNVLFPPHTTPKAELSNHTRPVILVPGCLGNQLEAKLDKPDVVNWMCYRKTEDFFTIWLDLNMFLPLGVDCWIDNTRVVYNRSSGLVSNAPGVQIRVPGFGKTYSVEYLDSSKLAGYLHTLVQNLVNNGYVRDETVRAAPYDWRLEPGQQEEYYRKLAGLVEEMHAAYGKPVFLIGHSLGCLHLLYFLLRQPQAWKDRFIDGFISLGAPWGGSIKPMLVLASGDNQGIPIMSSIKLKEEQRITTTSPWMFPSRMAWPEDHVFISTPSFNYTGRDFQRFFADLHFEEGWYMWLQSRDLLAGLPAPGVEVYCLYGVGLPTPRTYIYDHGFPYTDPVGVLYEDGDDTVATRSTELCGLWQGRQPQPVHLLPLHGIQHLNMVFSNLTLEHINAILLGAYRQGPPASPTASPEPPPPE
Experimental: The activity of the LCAT enzyme with the various peptide-lipid complexes as substrates was determined by measuring the mount of cholesteryl esters generated during the enzymatic reaction by HPLC (Vercaemst et al., 1989).
The assay mixture consisted of variable mounts of complexes at cholesterol concentrations varying between 5 and 100 μM, 5 mg defatted bovine serum albumin (Sigma), 6 mM beta-mercaptoethanol in a reaction volume of 0.2 ml. After a preincubation of 20 min at 37° C., the enzymatic reaction was initiated by adding 3-6 μl of the semi-purified LCAT enzyme. The reaction was followed at 37° C. and was stopped by extraction of the incubation mixture with hexane-isopropanol 3:2, v/v. The solvent mixture contained either cholesteryl heptadecanoate (Sigma) or beta-sitosterol (Sigma) as internal standards for respectively cholesteryl esters and unesterified cholesterol quantification.
The unesterified cholesterol and the cholesteryl esters are identified and quantified by isocratic HPLC on a reversed-phase Zorbax ODS column, eluted with acetonitrile-isopropanol at a ratio of 90:10 v/v for unesterified cholesterol and of 50:50 v/v for cholesteryl esters. Detection was performed by measuring the UV absorbance at 205-210 nm. At a column temperature of 50° C. and with a flow-rate of 1.2 ml/min, the separation is completed within 25 min (Vercaemst et al., 1989). The sensitivity of this HPLC technique is similar to that of the conventional radioactive assay for polyunsaturated lecithin substrates (50 ng), and is about twice as low for saturated lecithins (80 ng).
The time course of cholesterol esterification by the LCAT enzyme with discoidal substrates consisting of PLPC, cholesterol, and the synthetic peptides, was followed between 0 and 24 h (Jonas, 1987). For the determination of the kinetic parameters, the initial velocities were determined in the linear portion of the curves, i.e. between 0-30% cholesteryl esters formation. The sample concentrations were in the range of 5×10^-7 to 5×10^-6 M with a constant enzyme volume of 5 μl, so that a linear production of cholesteryl esters formation was measured within 10 min at 37° C.
The initial kinetics (Vo) as a function of the apoprotein or peptide (C) concentrations were analyzed using a Lineweaver-Burk plot of 1/Vo versus 1/C. Linear regression analysis yielded the apparent kinetic parameters: Vmax, Km and Vmax/Km for each apoprotein or peptide-lipid complex. All kinetic experiments were performed at least three times and Vmax and Km values were expressed as mean ±error on the intercept and slope of the regression line.
The kinetics of the reaction of the semi-purified LCAT enzyme with discoidal complexes generated between the peptides, PLPC and cholesterol as substrate were followed between 0 and 24 h, and compared with those of the apo AI/PLPC/cholesterol complexes. The expression "semi-purified" corresponds to the concentration relative to that in plasma by a factor of 5100, with the major contaminant being albumin. The time course of the reaction, expressed as the percentage of esterified cholesterol as compared with the original substrate is shown on FIGS. 5a, 5b and 6 and in Table 2. […] After 24 h, more than 90% of the initial cholesterol present in all substrates was converted into cholesteryl esters (FIG. 5a).

[3] = GdmCl denaturation followed by Trp maximal emission wavelength; format: physicochemical; settings: phospholipid (DMPC) complex
Experimental: The stability of the DMPC-peptide complexes, was compared by following the maximal emission wavelength of the Trp residues after exposure to increasing quantities of GdmCl. For these experiments aliquots of a 8M GdmCl solution were added to the complex in the Tris-HCl buffer described above (see FIG. 3).

[4] = as above; format: physicochemical; settings: free peptide or protein
[5] = Trp fluorescence emission of peptides and complexes; format: physicochemical; settings: for Trp maximal emission wavelength, free: free peptide or protein; for Trp maximal emission wavelength upon phospholipid binding: in the phospholipid complex
Experimental: The measurement of the Trp fluorescence emission in the peptides and in the complexes was used to monitor complex formation. The fluorescence measurements were performed on an Aminco SPF-500 spectrofluorimeter equipped with a special adapter (Aminco-J4-9501) for the fluorescence polarisation measurements. The fluorescence polarization of the lipid-peptide complexes labelled with diphenyl hexatriene (DPH) (molar ratio of 500:1 lipid:DPH) was measured as a function of the temperature to detect changes in the fluidity of the phospholipid acyl chains due to lipid-peptide association. The excitation wavelength was set at 365 nm and emission was detected at 427 nm. Temperature scans between 15° and 40° C. were performed with a circulating water bath (Julabo) at a rate of 0.6° C./min.

Substance	Vmax compared with other complexes / apo AI-phospholipid complexes [2]	Vmax (LCAT activation) [2]	kinetics of cholesterol esterification by LCAT (time course) [2]	Vmax/Km A % of apo A1 (LCAT activation) [2]	time at which plateau of esterification was reached ([2]; saturable kinetics)	percentage of alpha-helix structure, peptide, CD [1]	percentage of alpha-helix structure, DMPC/peptide, CD [1]	midpoint of the GdmCl denaturation, phospholipid complex [3]	midpoint of the GdmCl denaturation transition, free peptide [4]	Trp maximal emission wavelength, free [5]	Trp maximal emission wavelength upon phospholipid binding [5]
EWLEAFYKKVLEKLKELF [M4]	two to three times lower	1.53 nmol CE/h	fastest kinetics	–	–	50%	65%	2.5 M	around 0.1 M	–	–
EWLKAEYEKVEEKLKELF [M3]	considerably lower	0.33 nmol CE/h	low rate of cholesterol esterification	10.7%	–	–	–	immediately	around 0.1 M	–	–
EWLKAEYEKVLEKLKELF [M2]	–	0.33 nmol CE/h	low rate of cholesterol esterification	3.3%	–	30%	46%	3 M	immediately	353 nm	342 nm
EWLKAFYKKVLEKLKELF [M1]	two to three times lower; also recorded: considerably lower	2.41 nmol CE/h	fastest kinetics	15.4%	–	20%	46%	4 M	around 0.3 M	341 nm	335 nm
apo AI: native plasma apo AI purified from human plasma; major apoprotein constituent of HDL	–	5.89 nmol CE/h	fastest kinetics	100.0%	2 to 4 h	29%	47%	2.5 M	1.3 M	333 nm and 338 nm	329 nm
